Measured values reported in US20200231684A1 (published 2020).
Where two headings read alike, the source gives them in different places.

Columns and labels:
[1] = target: T1, recombinant human IL-36R (ECD) (human, UniProt Q9HB29 20-332); assay: SPR (ProteOn), single IL-36R surface coat concentration
T1 construct: range 20-332; also called IL-1RL2; IL-1Rrp2
T1 sequence (looked up): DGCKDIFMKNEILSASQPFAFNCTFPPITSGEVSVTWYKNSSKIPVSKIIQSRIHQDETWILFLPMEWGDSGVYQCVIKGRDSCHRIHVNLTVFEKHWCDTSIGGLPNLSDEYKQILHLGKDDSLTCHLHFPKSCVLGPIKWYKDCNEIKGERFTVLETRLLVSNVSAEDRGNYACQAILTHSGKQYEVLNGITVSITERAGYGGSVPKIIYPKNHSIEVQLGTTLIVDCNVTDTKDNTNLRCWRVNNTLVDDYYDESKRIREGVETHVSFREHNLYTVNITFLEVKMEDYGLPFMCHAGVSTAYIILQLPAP
Procedure: A) Kinetics and binding affinities of anti-IL-36R antibodies binding to recombinant human IL-36R were measured using the Proteon (Bio-Rad, Hercules, Calif.) using material generated from hybridoma following single column purification. […] Binding of the chimeric anti-IL36R IgGs is equivalent to the respective mouse leads.

[2] = target: T2, human IL-1R1 (human, UniProt P14778 18-336, limits assumed); assay: BLI (Fortebio Octet), antibody injected over antigen surface
T2 construct: also called IL-1RI
T2 sequence (looked up): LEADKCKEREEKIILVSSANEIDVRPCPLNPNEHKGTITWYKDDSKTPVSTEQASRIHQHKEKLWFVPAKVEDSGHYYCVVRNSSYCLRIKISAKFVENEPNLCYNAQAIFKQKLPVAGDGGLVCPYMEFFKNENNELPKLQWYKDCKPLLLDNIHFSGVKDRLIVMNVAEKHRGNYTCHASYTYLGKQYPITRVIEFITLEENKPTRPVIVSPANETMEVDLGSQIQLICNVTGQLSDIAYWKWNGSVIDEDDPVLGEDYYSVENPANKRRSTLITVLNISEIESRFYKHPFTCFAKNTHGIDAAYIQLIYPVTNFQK
Procedure: (§1) B) Molecular selectivity over mouse IL-36R and human IL-1R1 The mouse and chimeric anti-IL-36R antibodies were also injected over either a mouse IL-36R or a human IL-1R1 surface at a concentration of 100 nM. The binding signal to mouse IL-36R and to human IL-1R1 for these antibodies measured using the Fortebio Octet (Fortebio, Menlo Park, Calif.) is zero, which indicates these antibodies selectively bind to human IL-36R.

[3] = target: T3, mouse IL-36R (mouse, UniProt Q9ERS7 22-338); assay: as above
T3 sequence (looked up): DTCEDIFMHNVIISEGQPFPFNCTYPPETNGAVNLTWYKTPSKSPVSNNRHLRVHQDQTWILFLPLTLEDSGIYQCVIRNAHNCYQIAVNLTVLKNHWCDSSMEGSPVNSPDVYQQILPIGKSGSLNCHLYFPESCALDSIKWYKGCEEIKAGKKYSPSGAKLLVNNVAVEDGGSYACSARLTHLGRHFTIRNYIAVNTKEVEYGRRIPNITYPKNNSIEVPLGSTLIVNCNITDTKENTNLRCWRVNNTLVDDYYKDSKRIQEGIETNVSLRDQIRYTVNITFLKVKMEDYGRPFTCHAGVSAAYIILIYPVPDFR
Procedure: as §1

[4] = target: cynomolgus IL-36R on BaF/3 cells (cynomolgus, UniProt A0A2K5WSK9 20-558); assay: cell-based or functional assay
[5] = target: T4, human IL-36R on cells (human, UniProt Q9HB29 20-575); assay: cell-based or functional assay
T4 sequence (looked up): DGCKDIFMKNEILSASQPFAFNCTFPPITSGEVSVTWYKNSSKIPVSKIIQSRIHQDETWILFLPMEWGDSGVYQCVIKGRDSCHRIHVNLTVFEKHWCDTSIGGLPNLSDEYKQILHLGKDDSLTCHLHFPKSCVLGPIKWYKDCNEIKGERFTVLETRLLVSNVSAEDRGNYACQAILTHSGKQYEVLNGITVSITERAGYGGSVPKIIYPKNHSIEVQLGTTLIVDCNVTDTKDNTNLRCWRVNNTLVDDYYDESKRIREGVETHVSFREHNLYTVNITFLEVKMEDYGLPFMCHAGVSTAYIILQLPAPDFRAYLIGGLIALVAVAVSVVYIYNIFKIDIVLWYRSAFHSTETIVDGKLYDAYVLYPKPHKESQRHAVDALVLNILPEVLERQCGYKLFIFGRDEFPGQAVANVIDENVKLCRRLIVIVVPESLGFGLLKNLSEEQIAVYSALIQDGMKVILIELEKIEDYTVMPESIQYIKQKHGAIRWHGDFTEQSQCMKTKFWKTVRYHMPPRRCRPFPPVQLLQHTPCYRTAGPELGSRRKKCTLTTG

[6] = target: T4, human IL-36R on cells; assay: cell-based or functional assay; remark: listed apart in the source
[7] = target: T4, human IL-36R on cells; assay: cell-based or functional assay; remark: listed apart in the source

Chain of cynomolgus IL-36R on BaF/3 cells (A0A2K5WSK9 entry or part of it): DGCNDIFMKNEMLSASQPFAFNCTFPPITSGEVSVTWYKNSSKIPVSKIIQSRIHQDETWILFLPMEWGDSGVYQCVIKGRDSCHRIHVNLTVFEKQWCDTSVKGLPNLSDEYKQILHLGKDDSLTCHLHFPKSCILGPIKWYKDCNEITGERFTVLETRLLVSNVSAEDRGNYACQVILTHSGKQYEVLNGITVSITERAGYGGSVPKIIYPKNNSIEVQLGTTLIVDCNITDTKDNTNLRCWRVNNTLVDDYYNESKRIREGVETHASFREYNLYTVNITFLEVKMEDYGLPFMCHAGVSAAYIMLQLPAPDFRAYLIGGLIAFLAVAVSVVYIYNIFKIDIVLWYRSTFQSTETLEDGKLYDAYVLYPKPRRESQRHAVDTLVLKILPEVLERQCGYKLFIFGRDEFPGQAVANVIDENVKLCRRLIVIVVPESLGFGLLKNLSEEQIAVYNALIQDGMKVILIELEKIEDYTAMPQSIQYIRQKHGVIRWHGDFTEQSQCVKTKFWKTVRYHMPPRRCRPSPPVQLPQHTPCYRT

B1: antibody 172C8 (antibody, V domains shown)
VH: EVQLQQSGPELVKPGASVKLSCKASGYTFTDNYMNWVRQSHGKSLEWIGRVNPSNGDTKYNQNFKGKATLTVDKSLSTAYMQLNGLTSEDSAVYYCGRTKNFYSSYSYDDAMDYWGQGTSVTVSS
VL: DIQMTQSPASQSASLGESVTFTCLASQTIGTWLAWYQQRPGKSPQLLIYAATSLADGVPSRFSGSGSGTQFSFNIRSLQAEDFASYYCQQVYTTPLTFGGGTKLEIK
notes: Mouse monoclonal from hybridoma; also called 172C8B12
B1 was tested, and the Kd [1] was less than 0.1 nM, the binding result [2] was “no binding (tested: 100 nM)” and the binding result [3] was “no binding (tested: 100 nM)”. The “IC90, pNFκB, BaF/3 cynomolgus IL-36R cells, trun-IL-36a” value [4] was greater than 4000 nM, the “IC90, pNFκB, BaF/3 cynomolgus IL-36R cells, trun-IL-36b” value [4] was greater than 333 nM and the “IC90, pNFκB, BaF/3 cynomolgus IL-36R cells, trun-IL-36g” value [4] was greater than 333 nM. For the same binder, the “IC90, pNFκB, NCI/ADR-RES cells, trun-IL-36g” value [5] was 3.8 nM.

B2: chimeric antibody C33D10 (antibody, V domains shown)
VH: QVQLQQSGTELLKPGASVKLSCKASGNTVTSYWMHWVKQRPGQGLEWIGEILPSTGRTNYNENFKGKAMLTVDKSSSTAYMQLSSLASEDSAVYYCTIVYFGNPWFAYWGQGTLVTVSA
VL: QIVLTQSPAIMSASLGERVTMTCTASSSVSSSYLHWYQKKPGSSPKLWVYSTSNLASGVPVRFSGSGSGTSYSLTISSMEAEDAATYYCHQHHRSPVTFGSGTKLEMK
notes: Mouse variable domains of 33D10 on human constant domains (hu IgG1KO/kappa); also called chimeric 33D10
For B2, the binding result [2] was “no binding (tested: 100 nM)”, the binding result [3] was “no binding (tested: 100 nM)” and the “IC90, IL-8 release, NCI/ADR-RES cells, trun-IL-36a” value [6] was 0.4 nM. For the same binder, the “IC90, IL-8 release, NCI/ADR-RES cells, trun-IL-36b” value [6] was 0.3 nM, the “IC90, IL-8 release, NCI/ADR-RES cells, trun-IL-36g” value [6] was 0.2 nM and the “IC90, pNFκB, NCI/ADR-RES cells, trun-IL-36a” value [6] was 1.9 nM. For the same binder, the “IC90, pNFκB, NCI/ADR-RES cells, trun-IL-36b” value [6] was 2 nM and the “IC90, pNFκB, NCI/ADR-RES cells, trun-IL-36g” value [6] was 1.3 nM.

B3: chimeric antibody C73C5 (antibody, V domains shown)
VH: QVQLKESGPGLVAPSQSLSITCTVSGFSLTNYAVHWVRQFPGKGLEWLGVIWSDGSTDFNAPFKSRLSINKDNSKSQVFFKMNSLQIDDTAIYYCARKGGYSGSWFAYWGQGTLVTVSA
VL: DIVMTQSQKFLSTSVGVRVSVTCKASQDVGTNVLWYQQKIGQSPKPLIYSASYRHSGVPDRFTGSGSGTDFTLIISNVQSEDLAEYFCQQYSRYPLTFGPGTKLELK
notes: Mouse variable domains of 73C5 on human constant domains (hu IgG1KO/kappa); also called chimeric 73C5
For B3, the “IC90, IL-8 release, human primary keratinocytes (NHK), trun-IL-36a” value [7] was 29.7 nM, the “IC90, IL-8 release, human primary keratinocytes (NHK), trun-IL-36b” value [7] was 49.3 nM and the “IC90, IL-8 release, human primary keratinocytes (NHK), trun-IL-36g” value [7] was 3.6 nM. The “IC90, pNFκB, human primary keratinocytes (NHK), trun-IL-36b” value [7] was 8.3 nM, the binding result [2] was “no binding (tested: 100 nM)” and the binding result [3] was “no binding (tested: 100 nM)”. The “IC90, IL-8 release, NCI/ADR-RES cells, trun-IL-36a” value [6] was 0.7 nM, the “IC90, IL-8 release, NCI/ADR-RES cells, trun-IL-36b” value [6] was 0.4 nM and the “IC90, IL-8 release, NCI/ADR-RES cells, trun-IL-36g” value [6] was 0.4 nM. For the same binder, the “IC90, pNFκB, NCI/ADR-RES cells, trun-IL-36a” value [6] was 2.1 nM, the “IC90, pNFκB, NCI/ADR-RES cells, trun-IL-36b” value [6] was 0.9 nM and the “IC90, pNFκB, NCI/ADR-RES cells, trun-IL-36g” value [6] was 1.8 nM.

B4: chimeric antibody C81B4 (antibody, V domains shown)
VH: QVQLQQPGADFVRPGASMRLSCKASGYSFTSSWIHWVKQRPGQGLEWIGEINPGNVRTNYNENFRNKATLTVDKSSTTAYMQLRSLTSADSAVYYCTVVFYGEPYFPYWGQGTLVTVSA
VL: QIVLTQSPAIMSASLGERVTMTCTASSSVSSSYFHWYQQKPGSSPKLWIYRTSNLASGVPGRFSGSGSGTSYSLTISSMEAEDAATYYCHQFHRSPLTFGAGTKLELK
notes: Mouse variable domains of 81B4 on human constant domains (hu IgG1KO/kappa); also called chimeric 81B4
In the case of B4, the “IC90, IL-8 release, human primary keratinocytes (NHK), trun-IL-36a” value [7] is reported as 1.2 nM, the “IC90, IL-8 release, human primary keratinocytes (NHK), trun-IL-36b” value [7] is reported as 11.1 nM and the “IC90, IL-8 release, human primary keratinocytes (NHK), trun-IL-36g” value [7] is reported as 0.3 nM. The “IC90, pNFκB, human primary keratinocytes (NHK), trun-IL-36b” value [7] was 1.8 nM, the binding result [2] was “no binding (tested: 100 nM)” and the binding result [3] was “no binding (tested: 100 nM)”. The “IC90, IL-8 release, NCI/ADR-RES cells, trun-IL-36a” value [6] was 0.4 nM, the “IC90, IL-8 release, NCI/ADR-RES cells, trun-IL-36b” value [6] was 0.1 nM and the “IC90, IL-8 release, NCI/ADR-RES cells, trun-IL-36g” value [6] was 0.1 nM. The “IC90, pNFκB, NCI/ADR-RES cells, trun-IL-36a” value [6] was 1.3 nM, the “IC90, pNFκB, NCI/ADR-RES cells, trun-IL-36b” value [6] was 0.9 nM and the “IC90, pNFκB, NCI/ADR-RES cells, trun-IL-36g” value [6] was 0.4 nM.
